Each block holds one substance with its values, some of them ahead of it.
Key:
[1] = target: β1 integrin chain on HT29 cells (α5 null line) (human) (UniProt P05556); assay: FACS on HT29 cells, isotype control
[2] = target: Macaque α5β1 (Macaque); assay: FACS on macaque PBMC, isotype control
[3] = target: human α5β1 integrin (human) (UniProt P08648); assay: FACS on human α5β1-transfected 300.19 cells, negative control
[4] = target: human α5β1 integrin (human) (UniProt P08648); assay: FACS on human α5β1-transfected against untransfected 300.19 cells, negative control
[5] = target: β1 integrin chain on HT29 cells (α5 null line) (human) (UniProt P05556); assay: FACS on HT29 cells, positive control
[6] = target: macaque β1 integrin chain on T cells (Macaque); assay: FACS on macaque PBMC, control antibody
[7] = target: αvβ6 integrin on HT29 cells (human) (UniProt P06756); assay: FACS on HT29 cells, positive control
[8] = target: β1 integrin chain on HT29 cells (α5 null line) (human) (UniProt P05556); assay: FACS on HT29 cells (no α5, β1 present), control antibody to α5β1
[9] = target: avb3 and avb5 integrins on A375M cells; assay: cell-based or functional assay
[10] = target: αv integrin chain on HT29 cells (human) (UniProt P06756); assay: FACS on HT29 cells, positive control
[11] = target: macaque αV integrin chain on T cells (Macaque); assay: FACS on macaque PBMC, control antibody

Chain of β1 integrin chain on HT29 cells (α5 null line) (human) (P05556 21-798): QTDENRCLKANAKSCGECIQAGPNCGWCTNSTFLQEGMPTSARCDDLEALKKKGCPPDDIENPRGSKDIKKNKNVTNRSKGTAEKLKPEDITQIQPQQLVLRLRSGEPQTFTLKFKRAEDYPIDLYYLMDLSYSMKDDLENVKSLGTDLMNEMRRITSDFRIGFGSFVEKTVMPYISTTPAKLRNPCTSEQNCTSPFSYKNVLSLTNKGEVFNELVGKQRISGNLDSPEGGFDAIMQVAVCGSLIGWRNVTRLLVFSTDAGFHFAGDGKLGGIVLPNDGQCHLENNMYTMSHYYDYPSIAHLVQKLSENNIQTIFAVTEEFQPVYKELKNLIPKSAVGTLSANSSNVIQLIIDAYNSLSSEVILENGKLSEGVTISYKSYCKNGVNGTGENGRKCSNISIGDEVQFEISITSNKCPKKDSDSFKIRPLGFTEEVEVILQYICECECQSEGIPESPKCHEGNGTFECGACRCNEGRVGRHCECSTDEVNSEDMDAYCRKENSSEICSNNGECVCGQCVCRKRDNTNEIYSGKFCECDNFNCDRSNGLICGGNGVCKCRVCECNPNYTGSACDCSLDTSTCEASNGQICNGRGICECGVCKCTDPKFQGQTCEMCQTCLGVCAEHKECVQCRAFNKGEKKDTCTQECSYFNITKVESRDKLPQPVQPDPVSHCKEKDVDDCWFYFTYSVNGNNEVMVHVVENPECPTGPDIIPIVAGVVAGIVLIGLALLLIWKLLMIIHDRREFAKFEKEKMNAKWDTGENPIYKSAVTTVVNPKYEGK
Chain of human α5β1 integrin (human) (P08648 42-1049, chain 1 of 2): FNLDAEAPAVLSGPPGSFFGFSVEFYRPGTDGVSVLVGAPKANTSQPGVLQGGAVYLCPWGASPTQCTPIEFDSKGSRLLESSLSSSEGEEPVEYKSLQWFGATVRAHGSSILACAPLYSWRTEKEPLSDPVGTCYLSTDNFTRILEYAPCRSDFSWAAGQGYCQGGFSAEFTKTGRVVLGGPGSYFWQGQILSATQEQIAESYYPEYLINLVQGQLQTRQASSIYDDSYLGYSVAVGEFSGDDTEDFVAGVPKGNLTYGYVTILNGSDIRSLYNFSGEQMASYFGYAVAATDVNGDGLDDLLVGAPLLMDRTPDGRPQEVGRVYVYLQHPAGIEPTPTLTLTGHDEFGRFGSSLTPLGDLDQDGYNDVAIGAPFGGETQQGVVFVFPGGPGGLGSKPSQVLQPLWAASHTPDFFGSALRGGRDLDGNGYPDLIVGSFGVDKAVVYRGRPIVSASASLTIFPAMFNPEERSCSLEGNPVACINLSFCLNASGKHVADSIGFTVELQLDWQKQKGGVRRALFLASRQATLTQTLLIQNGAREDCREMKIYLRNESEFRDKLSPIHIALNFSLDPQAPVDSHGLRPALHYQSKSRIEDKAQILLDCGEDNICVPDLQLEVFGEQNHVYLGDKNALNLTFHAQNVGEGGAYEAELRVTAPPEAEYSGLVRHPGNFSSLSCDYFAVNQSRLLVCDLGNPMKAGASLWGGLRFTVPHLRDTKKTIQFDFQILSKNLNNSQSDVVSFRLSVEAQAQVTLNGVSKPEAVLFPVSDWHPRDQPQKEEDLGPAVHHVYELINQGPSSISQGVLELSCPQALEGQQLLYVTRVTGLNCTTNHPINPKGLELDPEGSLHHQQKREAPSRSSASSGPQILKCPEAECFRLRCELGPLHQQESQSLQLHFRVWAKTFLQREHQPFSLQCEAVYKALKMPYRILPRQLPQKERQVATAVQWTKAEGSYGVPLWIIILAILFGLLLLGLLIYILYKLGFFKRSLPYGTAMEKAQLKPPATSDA
Chain of human α5β1 integrin (human) (P05556 21-798, chain 2 of 2, further chain): as the sequence (P05556 21-798) above
Chain of αv integrin chain on HT29 cells (human) (P06756 31-1048): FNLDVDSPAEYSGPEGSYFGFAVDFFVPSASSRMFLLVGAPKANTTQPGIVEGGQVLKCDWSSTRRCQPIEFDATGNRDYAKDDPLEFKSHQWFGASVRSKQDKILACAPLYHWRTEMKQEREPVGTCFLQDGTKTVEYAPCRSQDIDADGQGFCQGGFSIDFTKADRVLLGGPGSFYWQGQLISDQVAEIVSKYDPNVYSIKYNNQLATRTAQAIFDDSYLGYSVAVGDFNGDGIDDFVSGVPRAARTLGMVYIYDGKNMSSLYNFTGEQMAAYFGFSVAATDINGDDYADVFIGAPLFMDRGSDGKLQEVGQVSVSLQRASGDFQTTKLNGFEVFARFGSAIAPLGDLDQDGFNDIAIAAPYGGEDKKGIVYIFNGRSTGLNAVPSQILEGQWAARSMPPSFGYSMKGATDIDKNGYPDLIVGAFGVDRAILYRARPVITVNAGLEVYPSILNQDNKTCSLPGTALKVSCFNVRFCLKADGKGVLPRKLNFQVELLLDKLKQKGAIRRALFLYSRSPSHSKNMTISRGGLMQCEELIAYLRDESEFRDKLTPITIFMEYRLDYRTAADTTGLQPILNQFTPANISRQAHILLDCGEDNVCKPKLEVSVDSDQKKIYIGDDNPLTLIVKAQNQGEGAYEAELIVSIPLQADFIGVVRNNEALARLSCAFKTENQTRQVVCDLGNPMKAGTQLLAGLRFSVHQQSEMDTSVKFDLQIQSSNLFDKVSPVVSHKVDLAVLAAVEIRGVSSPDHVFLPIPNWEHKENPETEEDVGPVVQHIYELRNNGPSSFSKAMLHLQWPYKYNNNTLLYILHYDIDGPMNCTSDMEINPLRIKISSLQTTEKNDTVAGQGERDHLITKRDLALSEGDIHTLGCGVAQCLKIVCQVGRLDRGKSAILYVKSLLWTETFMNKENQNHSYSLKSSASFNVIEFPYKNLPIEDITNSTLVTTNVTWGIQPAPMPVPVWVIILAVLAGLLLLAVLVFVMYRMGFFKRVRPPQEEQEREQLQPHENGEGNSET
Chain of αvβ6 integrin on HT29 cells (human) (P06756 31-1048, chain 1 of 2): as the sequence (P06756 31-1048) above
Chain of αvβ6 integrin on HT29 cells (human) (P18564 22-788, chain 2 of 2, further chain): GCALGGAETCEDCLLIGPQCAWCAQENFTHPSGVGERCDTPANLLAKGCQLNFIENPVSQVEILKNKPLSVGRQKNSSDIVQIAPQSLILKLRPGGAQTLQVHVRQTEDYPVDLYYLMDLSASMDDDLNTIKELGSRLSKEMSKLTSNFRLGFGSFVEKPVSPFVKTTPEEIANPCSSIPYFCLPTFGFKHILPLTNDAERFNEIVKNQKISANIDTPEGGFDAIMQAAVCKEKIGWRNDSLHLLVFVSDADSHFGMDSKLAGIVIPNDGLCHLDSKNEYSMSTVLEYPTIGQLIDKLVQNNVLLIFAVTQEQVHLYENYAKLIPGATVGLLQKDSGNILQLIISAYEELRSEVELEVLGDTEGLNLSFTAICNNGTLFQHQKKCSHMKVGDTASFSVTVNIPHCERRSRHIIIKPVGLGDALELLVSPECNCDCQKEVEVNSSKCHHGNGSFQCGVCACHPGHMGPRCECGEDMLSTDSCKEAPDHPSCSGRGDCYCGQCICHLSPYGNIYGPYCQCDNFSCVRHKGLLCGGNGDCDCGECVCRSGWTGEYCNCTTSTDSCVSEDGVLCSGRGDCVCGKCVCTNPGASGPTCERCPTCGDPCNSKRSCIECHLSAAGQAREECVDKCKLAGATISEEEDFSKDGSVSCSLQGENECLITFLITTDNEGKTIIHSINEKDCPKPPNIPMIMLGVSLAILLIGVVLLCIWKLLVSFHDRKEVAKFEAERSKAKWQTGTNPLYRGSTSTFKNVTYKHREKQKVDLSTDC

Binding Geomean [1]: 2.55 | Geo Mean on Macaque T-cells IgG detection [2]: 2 | X Geo Mean [3]: 14.9 | Ratio (α5β1 expressing cells / parental cells) [4]: 0.9
Substance: Mouse IgG1 (antibody)

Binding Geomean [1]: 3.2
Substance: Human IgG4 (antibody)

Binding Geomean [1]: 2.84 | X Geo Mean [3]: 12 | Ratio (α5β1 expressing cells / parental cells) [4]: 0.8
Substance: Human IgG2 (antibody)

Geo Mean on Macaque T-cells IgG detection [2]: 3
Substance: Human IgG2/4

Osteopontin Adhesion (% inhibition) at 5 ug/ml, A375M cells [9]: 97% | Vitronectin Adhesion (% inhibition) at 5 ug/ml, A375M cells [9]: 96% | Binding Geomean [10]: 294 | Geo Mean on Macaque T-cells IgG detection [11]: 3
Substance: L230 (antibody)

Continued, substance first:

Substance: 4b4 anti beta1 (antibody)
Binding Geomean [5]: 362 | Geo Mean on Macaque T-cells IgG detection [6]: 141

Substance: MAB2077Z avb6 (antibody)
Binding Geomean [7]: 39.2

Substance: Mouse IgG2a (antibody)
Binding Geomean [1]: 10.2

Substance: mAb 1969 (antibody)
Binding Geomean [8]: 2.69

Reference: patent US20120114667A1
